For this assay, the target named is CTF2 mutant MUT9 (3xFLAG-tagged) (chicken) (UniProt Q90762). Nature of the assay: co-IP.
UniProt Q90762, sequence (Q90762 637-790, change not shown): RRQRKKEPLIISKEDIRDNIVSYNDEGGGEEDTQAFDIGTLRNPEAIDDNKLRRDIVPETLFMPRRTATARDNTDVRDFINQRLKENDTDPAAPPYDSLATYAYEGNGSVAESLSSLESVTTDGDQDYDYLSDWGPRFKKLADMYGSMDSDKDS

“β-catenin (endogenous, LMH cells) (natural protein)” registered a percent inhibition of β-catenin co-immunoprecipitation against wild-type CTF2 of 87.5%.
